Measured values as given in article PMC6182170, “A protein–protein interaction underlies the molecular basis for substrate recognition by an adenosine-to-inosine RNA-editing enzyme”.

Molecular target: T1, ADR-1 dsRBD2 mutant (ds2) (Caenorhabditis elegans, UniProt Q9U3D6 1-964, K584E;K585A;K588A)
T1 sequence: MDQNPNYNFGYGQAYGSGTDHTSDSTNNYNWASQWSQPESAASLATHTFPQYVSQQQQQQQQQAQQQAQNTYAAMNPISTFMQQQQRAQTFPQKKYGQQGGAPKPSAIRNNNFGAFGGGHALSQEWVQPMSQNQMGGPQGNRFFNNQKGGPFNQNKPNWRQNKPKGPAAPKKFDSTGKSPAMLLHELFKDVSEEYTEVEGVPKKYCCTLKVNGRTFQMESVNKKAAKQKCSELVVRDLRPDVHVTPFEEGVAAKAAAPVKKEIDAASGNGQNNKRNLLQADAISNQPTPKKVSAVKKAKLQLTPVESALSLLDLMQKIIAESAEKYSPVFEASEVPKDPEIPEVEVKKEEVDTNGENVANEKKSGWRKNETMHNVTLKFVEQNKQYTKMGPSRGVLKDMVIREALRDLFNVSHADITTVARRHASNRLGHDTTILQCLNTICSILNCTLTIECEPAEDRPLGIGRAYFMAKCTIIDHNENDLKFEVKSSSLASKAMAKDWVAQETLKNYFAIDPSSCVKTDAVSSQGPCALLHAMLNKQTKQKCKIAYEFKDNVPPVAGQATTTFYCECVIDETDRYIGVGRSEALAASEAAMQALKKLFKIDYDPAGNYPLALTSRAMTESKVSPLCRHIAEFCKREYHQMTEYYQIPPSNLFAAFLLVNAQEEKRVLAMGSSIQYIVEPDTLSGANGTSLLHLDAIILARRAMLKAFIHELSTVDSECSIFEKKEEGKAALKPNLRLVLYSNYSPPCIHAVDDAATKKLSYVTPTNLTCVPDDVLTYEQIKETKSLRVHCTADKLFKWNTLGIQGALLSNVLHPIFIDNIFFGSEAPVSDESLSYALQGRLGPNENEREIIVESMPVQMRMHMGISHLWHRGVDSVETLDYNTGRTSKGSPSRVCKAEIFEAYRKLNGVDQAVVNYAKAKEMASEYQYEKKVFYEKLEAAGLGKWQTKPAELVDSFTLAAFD
Experiment: EMSA; apparent Kd; text calls binding similar to WT; EMSA: 20 pM dsRNA, 50 mM KCl, 10 mM Tris-HCl pH 8.0, 10% glycerol, 1 mM MgCl2, 0.5 mM DTT, on ice 30 min; native 6% gel, 0.5x TBE, 4 C
Conditions: protein: recombinant; tags: N-terminal 6xHis (TEV site); label: 5' 32P on ssRNAs (PNK); imperfect duplex; printed strands 45 and 46 nt

B1: lam-2 3'UTR 46 bp dsRNA (dsRNA)
RNA 1: AGACACACAUACAAAAUUUACAAAAAUUGUUAAUUGACAAAAUAC
RNA 2: GUGUUUUGCCAAUUAACGAUUUUUUGUAAAUUUUAUAUGUGUCUCU
For B1, the Kd was 4.67 ± 0.7 nM.
